In US20140213513A1 (Sanofi, priority 2012, published 2014):
*1 amine or outer side, *2 acyl side, *3 side chain or, on linkers, in order; H or OH if unused. Where no end group is shown, it is not given here. Side-chain parts run from the residue outwards. [ ]: non-standard residue; d: D form. The star is where a group is joined. γGlu = O=C(O)[C@H](CCC(=O)[*:2])N[*:1]; Stearoyl = CCCCCCCCCCCCCCCCCC(=O)*; Palmitoyl = CCCCCCCCCCCCCCCC(=O)*; Aib = CC(C)(N)C(=O)O

Columns and labels:
Assay in all cases: cell-based or functional assay
human GIP receptor = target: T1, human GIP receptor (human, UniProt P48546 22-466)
T1 sequence (looked up): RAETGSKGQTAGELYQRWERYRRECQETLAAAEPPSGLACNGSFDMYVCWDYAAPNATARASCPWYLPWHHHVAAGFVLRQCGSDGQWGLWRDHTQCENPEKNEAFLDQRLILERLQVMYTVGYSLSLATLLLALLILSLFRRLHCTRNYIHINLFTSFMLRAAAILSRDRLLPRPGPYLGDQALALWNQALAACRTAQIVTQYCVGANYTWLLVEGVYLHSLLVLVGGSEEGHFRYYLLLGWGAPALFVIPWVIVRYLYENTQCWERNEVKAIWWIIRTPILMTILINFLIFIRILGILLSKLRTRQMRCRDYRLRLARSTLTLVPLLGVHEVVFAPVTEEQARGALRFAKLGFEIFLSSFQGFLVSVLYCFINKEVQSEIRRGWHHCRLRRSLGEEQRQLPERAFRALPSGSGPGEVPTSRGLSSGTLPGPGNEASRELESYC

human GLP-1 receptor = human GLP-1 receptor (human, UniProt P43220 24-463)
human glucagon receptor = human glucagon receptor (human, UniProt P47871 26-477)
Chain of human glucagon receptor (P47871 26-477): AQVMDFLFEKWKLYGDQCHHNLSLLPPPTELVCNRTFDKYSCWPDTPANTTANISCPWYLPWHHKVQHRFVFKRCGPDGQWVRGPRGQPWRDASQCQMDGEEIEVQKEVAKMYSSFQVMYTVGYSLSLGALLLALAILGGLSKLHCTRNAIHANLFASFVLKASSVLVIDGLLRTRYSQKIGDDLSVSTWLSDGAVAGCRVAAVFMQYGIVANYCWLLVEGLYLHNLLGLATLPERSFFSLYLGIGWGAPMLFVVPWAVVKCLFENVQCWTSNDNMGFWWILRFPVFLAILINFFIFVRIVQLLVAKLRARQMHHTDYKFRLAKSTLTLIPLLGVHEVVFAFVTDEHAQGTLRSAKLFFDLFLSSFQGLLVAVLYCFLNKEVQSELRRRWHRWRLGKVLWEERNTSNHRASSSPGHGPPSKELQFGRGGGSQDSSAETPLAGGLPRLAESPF

B1: exendin-4 peptide analogue SEQ ID NO: 42 (peptide)
peptide: Y[Aib]EGTFTSDLSIQK([γGlu-Stearoyl])ESKAAQEFIEWLKAGGPSSGAPPPS-NH2
modifications: N-terminus assumed
SMILES: CCCCCCCCCCCCCCCCCC(=O)N[C@@H](CCC(=O)NCCCC[C@H](NC(=O)[C@H](CCC(N)=O)NC(=O)[C@@H](NC(=O)[C@H](CO)NC(=O)[C@H](CC(C)C)NC(=O)[C@H](CC(=O)O)NC(=O)[C@H](CO)NC(=O)[C@@H](NC(=O)[C@H](Cc1ccccc1)NC(=O)[C@@H](NC(=O)CNC(=O)[C@H](CCC(=O)O)NC(=O)C(C)(C)NC(=O)[C@@H](N)Cc1ccc(O)cc1)[C@@H](C)O)[C@@H](C)O)[C@@H](C)CC)C(=O)N[C@@H](CCC(=O)O)C(=O)N[C@@H](CO)C(=O)N[C@@H](CCCCN)C(=O)N[C@@H](C)C(=O)N[C@@H](C)C(=O)N[C@@H](CCC(N)=O)C(=O)N[C@@H](CCC(=O)O)C(=O)N[C@@H](Cc1ccccc1)C(=O)N[C@H](C(=O)N[C@@H](CCC(=O)O)C(=O)N[C@@H](Cc1c[nH]c2ccccc12)C(=O)N[C@@H](CC(C)C)C(=O)N[C@@H](CCCCN)C(=O)N[C@@H](C)C(=O)NCC(=O)NCC(=O)N1CCC[C@H]1C(=O)N[C@@H](CO)C(=O)N[C@@H](CO)C(=O)NCC(=O)N[C@@H](C)C(=O)N1CCC[C@H]1C(=O)N1CCC[C@H]1C(=O)N1CCC[C@H]1C(=O)N[C@@H](CO)C(N)=O)[C@@H](C)CC)C(=O)O
- EC50 hGIP R (human GIP receptor): 0.0129 nM
- EC50 hGLP-1 R (human GLP-1 receptor): 0.0062 nM
- EC50 hGLUC R (human glucagon receptor): 8.47 nM

B2: exendin-4 peptide analogue SEQ ID NO: 43 (peptide)
peptide: Y[Aib]QGTFTSDLSIQK([γGlu-Palmitoyl])DSRAAQDFIEWLKKGGPSSGAPPPS-NH2
modifications: N-terminus assumed
SMILES: CCCCCCCCCCCCCCCC(=O)N[C@@H](CCC(=O)NCCCC[C@H](NC(=O)[C@H](CCC(N)=O)NC(=O)[C@@H](NC(=O)[C@H](CO)NC(=O)[C@H](CC(C)C)NC(=O)[C@H](CC(=O)O)NC(=O)[C@H](CO)NC(=O)[C@@H](NC(=O)[C@H](Cc1ccccc1)NC(=O)[C@@H](NC(=O)CNC(=O)[C@H](CCC(N)=O)NC(=O)C(C)(C)NC(=O)[C@@H](N)Cc1ccc(O)cc1)[C@@H](C)O)[C@@H](C)O)[C@@H](C)CC)C(=O)N[C@@H](CC(=O)O)C(=O)N[C@@H](CO)C(=O)N[C@@H](CCCNC(=N)N)C(=O)N[C@@H](C)C(=O)N[C@@H](C)C(=O)N[C@@H](CCC(N)=O)C(=O)N[C@@H](CC(=O)O)C(=O)N[C@@H](Cc1ccccc1)C(=O)N[C@H](C(=O)N[C@@H](CCC(=O)O)C(=O)N[C@@H](Cc1c[nH]c2ccccc12)C(=O)N[C@@H](CC(C)C)C(=O)N[C@@H](CCCCN)C(=O)N[C@@H](CCCCN)C(=O)NCC(=O)NCC(=O)N1CCC[C@H]1C(=O)N[C@@H](CO)C(=O)N[C@@H](CO)C(=O)NCC(=O)N[C@@H](C)C(=O)N1CCC[C@H]1C(=O)N1CCC[C@H]1C(=O)N1CCC[C@H]1C(=O)N[C@@H](CO)C(N)=O)[C@@H](C)CC)C(=O)O
- EC50 hGIP R (human GIP receptor): 0.0482 nM
- EC50 hGLP-1 R (human GLP-1 receptor): 0.007 nM
- EC50 hGLUC R (human glucagon receptor): 0.114 nM
